Assay results as given in patent publication US20250145697A1 (WASHINGTON UNIVERSITY, published 2025).
One block for each binder: values may come before it.

Experiments:
[1] = target: T1, heat-induced aggregates of ApoE4 (human, UniProt P02649 19-317); assay: ELISA: total ApoE4 incubated at 40 C for 24 h loaded on the plate, HJ156 titrated, OD650
T1 construct: mature; aggregated state of the recombinant protein; also called ApoE4 incubated at 40 C for 24 hr; heat-treated ApoE4

[2] = target: T2, recombinant alipidated human ApoE2 (human, UniProt P02649 19-317); assay: direct ELISA on coated recombinant alipidated ApoE (0.5 ug/ml)
T2 construct: mature; full length recombinant protein made in E. coli or bought
Procedure, shortened: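 Plates coated overnight with full-length recombinant alipidated ApoE (0.5 μg/ml), from E. coli or a commercial source, were washed, blocked and incubated with anti-ApoE antibody. Binding was detected with goat anti-mouse IgG-HRP to generate dose-response curves.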

[3] = target: T2, recombinant alipidated human ApoE2; assay: ELISA: untreated ApoE2 coated at 0.5 ug/ml, antibody titrated, HRP goat anti-mouse IgG, OD650
Protocol: (§1) The aggregated ApoE was induced by incubating ApoE at 1 mg/ml concentration at 40° C. for 24 hours. The aggregates then were recovered in the pellet fraction following ultracentrifugation at 186,000 g for 1 hour. For ELISA, the untreated ApoE or heat-induced aggregates of ApoE were coated directly to ELISA plates at 0.5 μg/ml overnight at 4° C. After three washes with PBS, the wells were blocked with 1% BSA-PBS for 1 hour at room temperature with shaking at 500 rpm. The blocked wells were washed once with PBS and subsequently loaded with antibodies at serial concentrations (starting at 100 nM with 5-fold dilutions thereafter). Bound antibodies were detected with HRP-labeled goat anti-mouse IgG (Jackson Immunoresearch) and visualized with TMB substrate at OD₆₅₀ (reaction stopped with BioFX stop solution).

[4] = target: T3, recombinant alipidated human ApoE3 (human, UniProt P02649 19-317); assay: ELISA: untreated ApoE3 coated at 0.5 ug/ml, antibody titrated, HRP goat anti-mouse IgG, OD650
T3 construct: mature; full length recombinant protein made in E. coli or bought
Protocol: as §1

T2 sequence (P02649 19-317 R176C): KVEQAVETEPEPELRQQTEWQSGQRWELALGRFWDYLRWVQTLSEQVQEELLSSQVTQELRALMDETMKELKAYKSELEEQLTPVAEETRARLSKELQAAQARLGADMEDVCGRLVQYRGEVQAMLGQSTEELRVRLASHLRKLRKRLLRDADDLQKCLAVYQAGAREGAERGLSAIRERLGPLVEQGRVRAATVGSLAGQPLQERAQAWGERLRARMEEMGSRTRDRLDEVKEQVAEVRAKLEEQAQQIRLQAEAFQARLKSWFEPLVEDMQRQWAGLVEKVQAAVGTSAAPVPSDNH
T1 sequence (P02649 19-317 C130R): as the sequence (P02649 19-317 R176C) above, with C112R, C158R counted along it
T3 sequence (P02649 19-317): as the sequence (P02649 19-317 R176C) above, with C158R counted along it

EC50 (read off the curve) [1]: ~0.1 nM
B1: HJ156 (antibody, V domains shown)
VH: QVQLQQSGPELVKPGASVKISCKASGYIFTDYYINWVKRRPGQGLEWIGWIFPGSGVSYYNEQFKGKATLTVDKPSNTAYIFLSRLTSEDSAVYFCARYYSSSPFAYWGQGTLVTVSA
VL: DVLMTQTPLSLPVSLGDQASISCRSSQNIIHSNGNTYLEWFLQRPGQSPELLIYKVSNRFSGVPDRFSGSGSGTDFTLKISRVEAEDLGVYYCFQGSHVPYTFGGGTKLEIKR
notes: murine monoclonal antibody from hybridoma; also called HJ156B (biotinylated)

EC50 [2]: 0.25 nM | EC50 (read off the curve) [3]: ~0.2 nM | EC50 (read off the curve) [4]: ~0.5 nM
B2: HJ154 (antibody, V domains shown)
VH: QVQLQQPGTEFVMSGASVMLSCKASGYIFTNYWLHWVKQRPGHGLEWIGEIDPSDSYSICNDNFKGKSTLTVDKSSSTAYMQLSSLTSEDSAVYYCAGSLGRVGLAYWGQGTLVTVST
VL: QIVLTQSPAIMSASPGEKVTMSCSASSSVSNMYWYQQKPGSSPKSWIYRTSNLASGVPARFSGSGSGTSYSLTISNMEAEDAATYYCQHYQNYPLTFGAGTKLELKR
notes: murine monoclonal antibody from hybridoma; also called HJ154B (biotinylated)
